Experimental data reported in patent publication US20220177580A1.

Target: huFcγRIIa-131H (His-tagged, soluble, captured for SPR) (human) (UniProt P12318)
Assay: SPR, His-tagged FcγR captured by anti-His antibody, antibody injected

Chain of huFcγRIIa-131H (His-tagged, soluble, captured for SPR) (human) (P12318 34-217 limits assumed): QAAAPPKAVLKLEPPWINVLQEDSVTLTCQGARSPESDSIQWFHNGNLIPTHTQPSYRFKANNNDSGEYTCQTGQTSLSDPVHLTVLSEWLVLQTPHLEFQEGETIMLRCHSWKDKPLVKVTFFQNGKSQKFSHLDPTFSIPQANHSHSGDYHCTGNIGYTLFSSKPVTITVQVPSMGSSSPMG

Kd: 25 µM
Substance: huIgG2 control (antibody)
